The source of these data is patent publication US20230331827A1, “POTASSIUM CHANNEL INHIBITORS” (priority 2017, published 2023).

The target in one data set is T1, huASIC1a (Homo sapiens, UniProt P78348).
T1 construct: host or cells: HEK293
T1 sequence (P78348 1-528): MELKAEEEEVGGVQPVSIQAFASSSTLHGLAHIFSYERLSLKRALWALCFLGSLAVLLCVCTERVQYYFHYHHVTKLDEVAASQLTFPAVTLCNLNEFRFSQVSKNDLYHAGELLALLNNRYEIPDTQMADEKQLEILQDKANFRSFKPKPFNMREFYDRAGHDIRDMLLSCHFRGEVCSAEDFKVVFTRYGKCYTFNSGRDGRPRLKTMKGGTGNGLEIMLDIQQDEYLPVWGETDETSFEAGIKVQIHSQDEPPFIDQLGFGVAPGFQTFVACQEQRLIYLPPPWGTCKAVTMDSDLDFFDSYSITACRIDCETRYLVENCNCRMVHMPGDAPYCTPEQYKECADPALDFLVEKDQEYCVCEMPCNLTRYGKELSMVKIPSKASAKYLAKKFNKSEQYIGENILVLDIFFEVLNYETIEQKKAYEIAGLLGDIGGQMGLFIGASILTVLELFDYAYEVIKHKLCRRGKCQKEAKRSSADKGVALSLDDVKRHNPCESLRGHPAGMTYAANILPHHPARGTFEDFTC
In words: QPatch electrophysiology, HEK293 cells stably expressing huASIC1a. In kind it is cell-based. The settings on record: ASIC1a current at pH 6.0 after 15-20 minutes KnotBody pre-incubation, 2.3-6.6 µM. How it is done:
Knottin Kv 1.3 and ASIC1a blockers expressed in the KnotBody format (see examples 6 and 7) were tested for their ability to inhibit the function of the ion channel targets. The effect of these KnotBodies on cells expressing the human Kv 1.3 (huKv1.3) or human ASIC1a channels was assessed using QPatch automated whole-cell patch-clamp electrophysiology (Sophion).
To functionally assess the ASIC1a KnotBodies, HEK293 cells stably expressing huASIC1a (Sophion) were analysed using a QPatch electrophysiology assay in the presence or absence of the KnotBody fusions (using KB_A12 as a recipient and replacing the original EETI-II donor as shown in Table 8). The “parental” KB_A12 with the EETI-II donor was used as a negative control. Internal and external physiological solutions were freshly prepared prior to the assay. The extracellular solution contained 145 mM NaCl, 4 mM KCl, 2 mM CaCl2, 1 mM MgCl2, 10 mM HEPES and 10 mM glucose; the pH was adjusted to 7.4 with NaOH (for control, resting-state pH) or 6.0 with MES (for acidic, activating-state pH); the osmolarity was ~ 305 mOsm/L. The intracellular solution contained: CsF (140 mM), HEPES (10 mM), NaCl (10 mM) and EGTA/CsOH (1 mM/5 mM); the pH was adjusted to 7.3 with CsOH; osmolarity was ~ 320 mOsm/L.
Throughout ASIC 1a recordings the recording cell membrane voltage was clamped at -60 mV. ASIC1a baseline control currents were elicited by applying external solution at activating pH 6.0 for 3000 ms. This activating pH application was repeated three further times, giving four baseline control ASIC1a currents. The recording cells were then pre-incubated with KnotBody diluted in external solution at pH 7.4 for 15-20 minutes. Following this KnotBody pre-incubation the same concentration of KnotBody in external solution at activating pH 6.0 was applied to the cell recording.
At the end of each KnotBody incubation and subsequent ASIC1a current activation, a full blocking concentration (300 nM) of the ASIC1a knottin inhibitor PcTx1 (positive control) was perfused onto the cell recording and a final activating pH 6.0 external solution was applied. The percentage remaining signal between activating pH 6.0 baseline (i.e. pre-KnotBody) and post-KnotBody incubation was determined.

A further data set concerns in vitro rat BBB model. In words: In vitro rat BBB model transcytosis, sandwich ELISA of Fab in lower chamber. The settings on record: test Fabs as oligoclonal mixes of 3 per well at 2 µM, controls 1 µM, value is per well. The data set is classed as in vitro ADME. How it is done:
In order to assess the ability of these KnotBodies to cross the BBB, a ready to use in vitro rat BBB model system (Pharmacocell, Cat. No. RBT-24H) was used. In this model system rat brain endothelial cells were co-cultured with pericytes and astrocytes to mimic the in vivo BBB anatomy (Nakagawa, S. et al. (2009) Neurochem. Int. 54, 253-263). The in vitro rat BBB kit was cultured according to manufacturer’s instructions and transendothelial electrical resistance (TEER) was measured prior to testing of KnotBodies to verify the integrity of the barrier. […] 21 KnotBody Fabs were tested for their ability to cross the in vitro BBB model system. […] The parent KnotBody KB_A12 was used as a negative control. Both positive and negative controls were expressed and purified in the Fab format as described above. […] The concentration of transcytosed Fabs in the lower chamber (referred as brain side) was determined using a sandwich ELISA. In this ELISA, Fabs were captured using an anti-CH1 antibody (provided by Hybridoma Reagent Laboratories) and detected using rabbit anti-human IgG Kappa light chain antibody (Abcam, Cat. No. ab195576) or anti-human IgG Lambda light chain antibody (Abcam, Cat. No. ab124719) followed by europium conjugated anti-rabbit antibody (Perkin Elmer, Cat. No. AD0105). […]

B1: KB_A07: EETI-II knottin fused into VL CDR2, D1A12 VH; parental KnotBody, isotype control (antibody, V domains shown)
VH: EVQLVESGGGLVRPGGSLRLSCAASGFTFSSYAMSWVRQAPGKGLEWVSAISGSGGSTYYADSVKGRFTISRDNTKNSLYLQMTSLRADDTAFYYCVKDFGPGYGTGWFDYWGPGTLVTVSS
VL: DIQMTQSPSSLSASVGDRVTITCRASQSISSYLNWYQQKPGKAPKLLIYAAGVCPRILMRCKQDSDCLAGCVCGPNGFCGSRSGVPSRFSGSGSGTDFTLTISSLQPEDFATYYCQQGASPPYTFGQGTKVEIKRT
On to B1, for which the “% current remaining” value with huASIC1a is listed as 70.9%.

B2: KB_A12: EETI-II knottin fused into VL CDR2, D1A12 VH; parental KnotBody, isotype control (antibody, V domains shown)
VH: B1 VH
VL: QSVLTQPPSVSEAPRQRVTITCSGSSSNIGNNAVNWYQQLPGKAPKLLIYAAGRCPRILMRCKQDSDCLAGCVCGPNGFCGANSGVSDRFSAAKSGTSASLAINGLRSEDEADYYCAAWDDSLNGYVFGTGTKLTVLGQP
With B2, the “% current remaining” value with huASIC1a was 67.4%. Further, the “% transcytosis after 6h” value in the data set on in vitro rat BBB model is on record as 0.1%.
